Tests used:
Assay in all cases: ELISA
[1] = biological target: T1, SLITRK5 (Homo sapiens (Human), UniProt O94991 41-664)
T1 sequence: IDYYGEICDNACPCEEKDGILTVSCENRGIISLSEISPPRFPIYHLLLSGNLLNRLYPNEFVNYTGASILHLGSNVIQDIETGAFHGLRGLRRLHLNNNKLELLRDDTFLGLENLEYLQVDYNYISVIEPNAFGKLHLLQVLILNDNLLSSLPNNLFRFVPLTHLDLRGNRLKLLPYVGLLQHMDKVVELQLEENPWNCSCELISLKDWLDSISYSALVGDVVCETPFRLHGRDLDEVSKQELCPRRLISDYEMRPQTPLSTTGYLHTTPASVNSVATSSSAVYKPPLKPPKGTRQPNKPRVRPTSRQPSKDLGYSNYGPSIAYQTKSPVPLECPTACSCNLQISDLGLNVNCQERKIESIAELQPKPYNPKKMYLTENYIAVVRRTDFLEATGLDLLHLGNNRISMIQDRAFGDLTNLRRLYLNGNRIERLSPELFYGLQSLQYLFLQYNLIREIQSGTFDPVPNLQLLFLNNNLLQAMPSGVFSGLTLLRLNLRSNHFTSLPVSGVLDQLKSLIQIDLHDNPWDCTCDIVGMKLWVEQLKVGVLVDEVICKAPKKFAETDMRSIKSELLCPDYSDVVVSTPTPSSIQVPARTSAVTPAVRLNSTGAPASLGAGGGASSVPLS

[2] = biological target: T2, DMP1 (Homo sapiens (Human), UniProt Q13316 17-513)
T2 sequence: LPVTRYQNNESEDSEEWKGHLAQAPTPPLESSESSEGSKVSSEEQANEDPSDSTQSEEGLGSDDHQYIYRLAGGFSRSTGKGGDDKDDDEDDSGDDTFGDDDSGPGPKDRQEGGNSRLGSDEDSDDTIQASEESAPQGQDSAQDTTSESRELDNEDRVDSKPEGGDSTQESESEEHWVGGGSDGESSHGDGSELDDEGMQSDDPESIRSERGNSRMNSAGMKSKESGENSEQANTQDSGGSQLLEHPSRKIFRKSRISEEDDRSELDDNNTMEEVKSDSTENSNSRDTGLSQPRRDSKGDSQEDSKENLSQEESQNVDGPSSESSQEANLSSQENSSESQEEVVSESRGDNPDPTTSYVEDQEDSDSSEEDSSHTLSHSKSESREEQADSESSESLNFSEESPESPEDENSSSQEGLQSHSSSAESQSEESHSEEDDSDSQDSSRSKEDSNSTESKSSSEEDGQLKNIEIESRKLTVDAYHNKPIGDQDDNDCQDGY

[3] = biological target: T3, SPARC (Homo sapiens (Human), UniProt P09486 18-303)
T3 sequence: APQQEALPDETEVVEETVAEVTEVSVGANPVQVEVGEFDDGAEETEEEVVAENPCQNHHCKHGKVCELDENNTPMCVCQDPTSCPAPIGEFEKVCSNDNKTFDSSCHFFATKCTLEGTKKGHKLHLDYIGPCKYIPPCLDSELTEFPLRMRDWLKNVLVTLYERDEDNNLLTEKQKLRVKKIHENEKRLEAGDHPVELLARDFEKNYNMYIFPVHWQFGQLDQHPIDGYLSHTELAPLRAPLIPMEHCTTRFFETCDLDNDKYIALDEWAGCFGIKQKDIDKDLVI

[4] = biological target: TNF (Homo sapiens (Human), UniProt P01375 77-233)
TNF, sequence (P01375 77-233 limits assumed): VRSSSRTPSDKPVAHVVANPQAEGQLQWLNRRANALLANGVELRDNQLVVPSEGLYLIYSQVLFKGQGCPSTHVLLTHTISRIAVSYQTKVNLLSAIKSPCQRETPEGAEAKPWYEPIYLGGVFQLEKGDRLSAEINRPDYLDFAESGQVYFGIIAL

[5] = biological target: T4, FSTL1 (Homo sapiens (Human), UniProt Q12841 21-308)
T4 sequence: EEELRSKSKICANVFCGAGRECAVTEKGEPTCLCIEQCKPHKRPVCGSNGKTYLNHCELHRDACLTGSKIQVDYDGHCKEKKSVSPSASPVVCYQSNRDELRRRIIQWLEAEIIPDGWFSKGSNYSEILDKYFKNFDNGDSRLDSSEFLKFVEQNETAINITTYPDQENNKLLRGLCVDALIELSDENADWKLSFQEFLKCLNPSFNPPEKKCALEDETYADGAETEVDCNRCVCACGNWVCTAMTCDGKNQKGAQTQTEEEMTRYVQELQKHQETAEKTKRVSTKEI

[6] = biological target: T5, WIF1 (Homo sapiens (Human), UniProt Q9Y5W5 29-379)
T5 sequence: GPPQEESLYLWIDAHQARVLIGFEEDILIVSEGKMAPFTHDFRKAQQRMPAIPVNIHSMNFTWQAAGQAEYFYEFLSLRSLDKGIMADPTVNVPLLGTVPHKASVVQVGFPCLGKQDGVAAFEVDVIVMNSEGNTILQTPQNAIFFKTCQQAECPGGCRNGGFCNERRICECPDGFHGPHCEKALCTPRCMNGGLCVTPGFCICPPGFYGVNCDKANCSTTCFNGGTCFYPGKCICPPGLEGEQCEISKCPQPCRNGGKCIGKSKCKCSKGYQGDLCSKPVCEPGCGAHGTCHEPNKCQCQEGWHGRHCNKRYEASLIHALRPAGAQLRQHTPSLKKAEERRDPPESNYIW

Measured: binding result

B1: PD1-41C9 (antibody, V domains shown)
VH: QMQLVESGGGVVQPGRSLRLSCAASGFTFSSYAMHWVRQAPGKGLEWVAVISYDGSNKYYADSVKGRFTISRDNSKNTLYLQMNRLRSEDTAVYYCTTTTFDSWGQGTLITVSS
VL: DIVMTQTPLSLPVTPGEAASISCRSSQSLLDSEDGNTYLDWYLQKPGQSPQLLIYTLSHRASGVPDRFSGSGSGTDFTLKISRVAAEDVGLYYCLQRMGFPYTFGQGTKLDIK
notes: scFv-phage in the screening ELISA; whole IgG in the other assays
no binding (tested: 1 ug/ml): all assays above

B2: PD1-49A2 (antibody, V domains shown)
VH: QVQLVESGGGVVQPGRSLRLSCAASGFTFSSYAMHWVRQAPGKGLEWVAVISYDGSNKYYADSVKGRFTISRDNPKNTLYLQMNSLRAEDTAVYYCTTTTFDSWGRGTLVTVSS
VL: DIVMTQSPLSLPVTPGEPASISCRSSQSLFDSDDGNTYLDWYLQKPGQSPQLLIYTLSHRASGVPDRFSGSGSGTDFTLKISRVEAEDVGIYYCLQRMGFPYTFGQGTKVEIK
notes: scFv-phage in the screening ELISA; whole IgG in the other assays; also called Parent 49A2
no binding (tested: 1 ug/ml): all assays above

B3: PD1-45D6 (antibody, V domains shown)
VH: QVQLVESGGGVVQPGRSLRLSCAASGFTFSSYAMHWVRQVPGKGLEWVAVISYDGNDKYYADSVKGRFTISRDNSKNTLYLQMNSLRAEDTAVYYCVPTTFEYWGQGSQVTVSS
VL: DIVMTQTPLSLPVTPGEAASISCRSSQSLLDSDDGKTYLDWYLQKPGQSPQLLIYTLSYRASGVPDRFSGSGSGTEFNLRISRVEAEDVGIYYCMQRVEFPFTFGQGTKLDIK
notes: as for B1
no binding (tested: 1 ug/ml): all assays above
